Values quoted from earlier work in paper PMC11507603.

Target: Ubiquitin (UniProt P0CG48)
Assay: SPR

Epsin Ent1 ENTH, sequence (Q12518 8-146): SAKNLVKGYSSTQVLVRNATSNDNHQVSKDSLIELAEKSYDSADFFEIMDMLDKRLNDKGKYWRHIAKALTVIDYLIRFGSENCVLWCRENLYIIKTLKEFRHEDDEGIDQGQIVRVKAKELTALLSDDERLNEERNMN

Kd: 2300 µM
Substance: Epsin Ent1 ENTH (from UniProt Q12518)
